Results published in patent US20120041185A1, “dTDP-BETA-D-FUCOFURANOSE, ITS PREPARATION METHOD AND USE” (TIANJIN BIOCHIP TECHNOLOGY CORPORATION, priority 2007, published 2012).

Experiments:
[1] = Enzyme activity assay of Fcf2: temperature optima (capillary electrophoresis); type: biochemical, E. coli O52; conditions: for Transformation rate (%): 3 hours, 2 mM dTDP-D-fucose, 3.9 μM enzyme
Procedure: 25 μl reactions in 0.5 ml centrifugal tube contain 2 mM dTDP-D-fucose, 50 mM Tris-HCl buffer (pH 7.4) 5 mM divalent ion chloride and 3.9 μM recombinant dTDP-D-Glcfucofuranose mutase protein purified in example 2. The reactions are proceeded at certain temperature for 3 hours. Then add chloroform of equal volume to extract protein. The aqueous phase is detected by Beckman Coulter P/ACE MDQ capillary electrophoresis.

[2] = Enzyme activity assay of Fcf1: temperature optima and kinetic parameters (capillary electrophoresis); type: biochemical, E. coli O52; conditions: for Transformation rate (%): 2 hours, 2 mM dTDP-D-Glco, 3 mM NADPH, 0.25 μM enzyme
Procedure: 20 μl reactions in 0.5 ml centrifugal tube contain 2 mM dTDP-D-Glco, 3 mM NADPH, 50 mM Tris-HCl buffer (pH7.4), 5 mM divalent ion chloride and 0.25 μM recombinant dTDP-D-GIcO reductase protein purified in example 2. The reactions are proceeded at certain temperatures for 2 hours. Then add chloroform of equal volume to extract protein. The aqueous phase is detected by Beckman Coulter P/ACE MDQ capillary electrophoresis.
In the condition of the foregoing reaction (37° C., 3 mM MADPH, 50 mM Tris-HCl buffer (pH 7.4), 0.25 μM enzyme, 30 seconds), the concentration of dTDP-GIcO is 0.1-1 mM. Measure the concentration of dTDP-Qui4N.

[3] = 37° C., pH 7.4, 0.25 μM enzyme, 30 seconds, dTDP-GIcO 0.1-1 mM, Michaelis-Menten equation

Row | Molecule | Transformation rate (%) ([1]; 4° C.) | Transformation rate (%) ([1]; 15° C.) | Transformation rate (%) ([1]; 25° C.) | Transformation rate (%) ([1]; 37° C.) | Transformation rate (%) ([1]; 50° C.) | Transformation rate (%) ([1]; 65° C.) | Transformation rate (%) ([1]; 80° C.) | optimum temperature for the enzyme activity ([1]; standard reactions at 4-80° C.) [°C] | Transformation rate (%) ([2]; 4° C.) | Transformation rate (%) ([2]; 15° C.) | Transformation rate (%) ([2]; 25° C.) | Transformation rate (%) ([2]; 37° C.) | Km [2, 3] [µM] | kcat [2, 3] [s⁻¹] | Transformation rate (%) ([2]; 50° C.) | Transformation rate (%) ([2]; 65° C.) | Transformation rate (%) ([2]; 80° C.) | optimum temperature for the enzyme activity ([2]; standard reactions at 4-80° C.)
1 | Fcf2: dTDP-D-Fucp mutase of E. coli O52 converting dTDP-D-Fucp to dTDP-D-Fucf, 377 amino acids, SEQ ID NO:4 (protein, E. coli O52) MNKVLIIGSGFSGATIARLLAEENIKVKIIDDRKHIGGNCYDERDEKTGINVHVYGPHIFHTDNEDVWNFVNKYGTFQPYTTRLKANAKGQIYSLPVNLHTINQYYKTALSPTEARKLIASKGDQTINDPQSFEEQALKFVGEDLYKTFFYGYPKKQWGMEPKEIPASVLKRLPVRFNYDDNYFFHKFQGIPRDGYTPLFQNLLNHPNIEFELGKKVNRATVEELITSEQYGHVFFSGAIDHFYDYEFGMLQYRTLDFEKFYSEDDDYQGCVVMSYCDEDVPYTRVTEHKYFTPWEEHKGSVLYKEFSRSCDKEDIPYYPVRLVSGNSIWNKYEQKAKEETNITFIGRLATYRYLDMDVCIKEAIECAQLYIKNNKE | 1.6 | 9.5 | 9.6 | 9.6 | 4.7 | 0 | 0 | 37 | – | – | – | – | – | – | – | – | – | –
2 | Fcf1: dTDP-6-deoxy-D-xylo-hex-4-ulopyranose reductase of E. coli O52, 316 amino acids, SEQ ID NO:3 (protein, E. coli O52) MDARKNGVLITGGAGFIGKALITEMVERQIPLVSFDISDKPDSLPELSEYFNWYKFSYLESSQRIKELHEIVSRHNIKTVIHLATTMFPHESKKNIDKDCLENVYANVCFFKNLYENGCEKIIFASSGGTVYGKSDTPFSEDDALLPEISYGLSKVMTETYLRFIAKELNGKSISLRISNPYGEGQRIDGKQGVIPIFLNKISNDIPIDIIGSIESKRDYIYISDLVQAFMCSLEYEGHEDIFNIGSGESITLKKLIETIEFKLNKKAVIGFQDPIHTNANGIILDIKRAMAELGWRPTVVLDDGIDKLIKSIRCK | – | – | – | – | – | – | – | – | 47.0 | 100 | 100 | 100 | 540 | 15.9 | 35.5 | 31 | 22 | 15-37 °C
